Laboratory results taken from article PMC10514999, “The PyPIF5-PymiR156a-PySPL9-PyMYB114/MYB10 module regulates light-induced anthocyanin biosynthesis in red pear”.
Residue numbers refer to the chain shown, from its start.

Experiments:
[1] = molecular target: T1, PyPIF5 (Pyrus (red pear; cultivar of the cloned …, UniProt A0A5N5GDZ9 1-552); assay: competition; unlabeled competitor of N1; binding gradually reduced; EMSA: 500 ng PyPIF5-His, 20 nM biotin probe, 20 uL with 4 uL 5x EMSA/Gel-Shift buffer (Beyotime GS009), 20 min, room temperature (~25 C); salt and pH not stated; details: protein: recombinant; tags: His (pColdTF vector); chain copies: 2; as N1, 37/36 nt as printed
T1 sequence: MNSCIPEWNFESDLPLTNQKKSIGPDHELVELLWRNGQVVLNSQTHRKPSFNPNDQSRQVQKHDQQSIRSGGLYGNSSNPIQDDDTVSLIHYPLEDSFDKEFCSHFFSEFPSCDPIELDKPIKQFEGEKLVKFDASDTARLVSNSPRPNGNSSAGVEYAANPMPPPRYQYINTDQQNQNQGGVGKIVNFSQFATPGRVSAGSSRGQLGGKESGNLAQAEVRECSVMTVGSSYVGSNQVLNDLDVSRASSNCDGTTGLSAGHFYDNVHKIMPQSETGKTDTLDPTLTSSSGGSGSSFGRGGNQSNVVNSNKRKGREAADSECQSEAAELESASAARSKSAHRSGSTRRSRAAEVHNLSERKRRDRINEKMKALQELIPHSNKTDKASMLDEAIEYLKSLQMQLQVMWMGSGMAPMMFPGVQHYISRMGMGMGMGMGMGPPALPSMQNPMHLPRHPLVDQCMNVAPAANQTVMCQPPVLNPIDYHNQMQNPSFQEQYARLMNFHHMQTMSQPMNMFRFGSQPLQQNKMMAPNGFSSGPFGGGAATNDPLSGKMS

[2] = molecular target: T1, PyPIF5; assay: EMSA; mutant probe, G-box destroyed; Methods also describe it as a competitor; EMSA: 500 ng PyPIF5-His, 20 nM biotin probe, 20 uL with 4 uL 5x EMSA/Gel-Shift buffer (Beyotime GS009), 20 min, room temperature (~25 C); salt and pH not stated; details: protein: recombinant; tags: His (pColdTF vector); chain copies: 2; label: biotin; blunt

B1: Cold-probe (dsDNA)
DNA 1: TTGTAAAGAACACGTACGTTACACGTACGCTGAAACA
DNA 2: TGTTTCAGCGTAGTGTAACGTACGTGTTCTTTACAA
binding result [1]: binds

B2: Bio-Mut-probe (dsDNA)
DNA 1: TTGTAAAGAACAGATACGTTACACTACGCTGAAACA
DNA 2: B1 DNA 2 with C23T, G24C
binding result [2]: no binding
